Laboratory results from the supplement of paper PMC7877785.
± gives the uncertainty stated by the source.

Assay: self-splicing fitness, log relative to wild type (ln ratio); higher = more splicing; Tetrahymena group I intron in knt gene, E. coli kanamycin selection, DiMSum; sequences stand for … in CUCUCU…GGAGGGAAAAGUUAUCAGGCAUGCACCUGGUAGCUAGUCUUUAAACCAAUAGAUUGCAUCGGUUUAAAAGGCAAGACCGUCAAAUUGCGGGAAAGGGGUCAACAGCCGUUCAGUACCAAGUCUCAGGGGAAACUUUGAGAUGGCCUUGCAAAGGGUAUGGUAAUAAGCUGACGGACAUGGUCCUAACCACGCAGCCAAGUCCUAAGUCAACAGAUCUUCUGUUGAUAUGGAUGCAGUUCACAGACUAAAUGUCGGUCGGGGAAGAUGUAUUCUUCUCAUAAGAUAUAGUCGGACCUCUCCUUAAUGGGAGCUAGCGGAUGAAGUGAUGCAACACUGGAGCCGCUGGGAACUAAUUUGUAUGCGAAAGUAUAUUGAUUAGUUUUGGAGUACUCGUGGUCG
Outline: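 Pooled colonies went to amplicon sequencing on an Illumina HiSeq 2500 after six replicate transformations. The plates were LB agar with 100 μg/mL carbenicillin, 50 μM IPTG and 0.2% rhamnose, with or without 25 μg/mL kanamycin, incubated overnight at 37°C or 30°C. The E. coli BL21(DE3) library had all eight P1ex-region intron nucleotides randomised, the intron placed in the knt kanamycin-resistance gene on pET-22b(+). DiMSum fitness is the error-weighted combination of replicate fold changes, kanamycin against none, normalised to wild type.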

| Sequence | self-splicing fitness (ln) (30 °C) | self-splicing fitness (ln) (37 °C) |
| --- | --- | --- |
| GUGAAGCAAUAUUACGGACA | 0.209 ± 0.092 | -0.366 ± 0.1 |
| GUGAAGCAAUAUUACGGAGG | -2.3 ± 0.23 | -2.49 ± 0.41 |
| GUGAAGCAAUAUUACGGAUC | -1.43 ± 0.086 | -0.286 ± 0.13 |
| GUGAAGCAAUAUUACGGCUG | -0.541 ± 0.082 | 0.0938 ± 0.11 |
| GUGAAGCAAUAUUACGGUAC | -0.508 ± 0.12 | -0.311 ± 0.15 |
| GUGAAGCAAUAUUACGGUUG | -1.71 ± 0.076 | -1.13 ± 0.11 |
| GUGAAGCAAUAUUACGUAAA | -1.41 ± 0.086 | -1.51 ± 0.12 |
| GUGAAGCAAUAUUACGUAAC | -1.99 ± 0.26 | -1.23 ± 0.31 |
| GUGAAGCAAUAUUACGUAGG | -2.29 ± 0.14 | -0.218 ± 0.15 |
| GUGAAGCAAUAUUACGUCGG | -0.498 ± 0.077 | 0.15 ± 0.1 |
| GUGAAGCAAUAUUACGUGAC | -2.77 ± 0.23 | -2.18 ± 0.27 |
| GUGAAGCAAUAUUACGUUAC | -2.88 ± 0.11 | -1.52 ± 0.13 |
| GUGAAGCAAUAUUACGUUAG | -1.06 ± 0.098 | 0.151 ± 0.14 |
| GUGAAGCAAUAUUACGUUGG | -2.81 ± 0.13 | -1.65 ± 0.12 |
| GUGAAGCAAUAUUACGUUUG | -2.25 ± 0.09 | -1.85 ± 0.12 |
| GUGCAGCAAUAUUACGACAA | -0.582 ± 0.066 | -0.153 ± 0.07 |
| GUGCAGCAAUAUUACGACAC | -1.57 ± 0.25 | -0.906 ± 0.2 |
| GUGCAGCAAUAUUACGACAG | -2.83 ± 0.14 | -1.71 ± 0.16 |
| GUGCAGCAAUAUUACGACUC | -0.543 ± 0.13 | 0.542 ± 0.19 |
| GUGCAGCAAUAUUACGACUG | -4.5 ± 0.39 | -2.84 ± 0.28 |
| GUGCAGCAAUAUUACGAGCU | -1.45 ± 0.062 | -0.353 ± 0.082 |
| GUGCAGCAAUAUUACGAGGA | -3.01 ± 0.2 | -1.74 ± 0.29 |
| GUGCAGCAAUAUUACGAGUA | -2.62 ± 0.34 | -1.8 ± 0.21 |
| GUGCAGCAAUAUUACGAUCU | -0.791 ± 0.052 | -0.194 ± 0.062 |
| GUGCAGCAAUAUUACGAUUA | -1.38 ± 0.13 | -0.611 ± 0.12 |

| Sequence | self-splicing fitness (ln) (30 °C) | self-splicing fitness (ln) (37 °C) |
| --- | --- | --- |
| GUGCAGCAAUAUUACGCAGA | -2.57 ± 0.46 | -1.53 ± 0.23 |
| GUGCAGCAAUAUUACGCGAA | -1.62 ± 0.1 | -0.106 ± 0.085 |
| GUGCAGCAAUAUUACGCGCG | -2.41 ± 0.13 | -1.98 ± 0.16 |
| GUGCAGCAAUAUUACGCGUA | -1.62 ± 0.13 | -0.278 ± 0.1 |
| GUGCAGCAAUAUUACGCGUU | -2.7 ± 0.11 | -1.18 ± 0.1 |
| GUGCAGCAAUAUUACGGAAA | – | -1.63 ± 0.34 |
| GUGCAGCAAUAUUACGGAGU | -3.05 ± 0.12 | -2.07 ± 0.11 |
| GUGCAGCAAUAUUACGGCCC | -0.475 ± 0.11 | -0.704 ± 0.17 |
| GUGCAGCAAUAUUACGGGCU | -1.95 ± 0.15 | -1.2 ± 0.12 |
| GUGCAGCAAUAUUACGUAAG | 0.0919 ± 0.087 | -0.00974 ± 0.1 |
| GUGCAGCAAUAUUACGUCCA | -1.53 ± 0.28 | -0.793 ± 0.27 |
| GUGCAGCAAUAUUACGUGCA | -3.19 ± 0.15 | -2.41 ± 0.17 |
| GUGCAGCAAUAUUACGUGGG | -2.86 ± 0.11 | -2.01 ± 0.11 |
| GUGCAGCAAUAUUACGUUAA | -1.75 ± 0.13 | -1.25 ± 0.13 |
| GUGCAGCAAUAUUACGUUCC | -2.72 ± 0.18 | -1.05 ± 0.25 |
| GUGCAGCAAUAUUACGUUGG | -2.58 ± 0.084 | -1.56 ± 0.097 |
| GUGGAGCAAUAUUACGACGA | – | -1.12 ± 0.46 |
| GUGGAGCAAUAUUACGAGUA | – | -1.96 ± 0.44 |
| GUGGAGCAAUAUUACGCUUG | -1.21 ± 0.16 | -1.25 ± 0.21 |
| GUGGAGCAAUAUUACGGCGA | -0.352 ± 0.17 | -1.43 ± 0.23 |
| GUGGAGCAAUAUUACGGCUU | -1.6 ± 0.28 | – |
| GUGGAGCAAUAUUACGGGCA | -2.2 ± 0.28 | -1.76 ± 0.45 |
| GUGGAGCAAUAUUACGUAAC | -0.784 ± 0.18 | -0.991 ± 0.28 |
| GUGGAGCAAUAUUACGUACG | – | -2.05 ± 0.23 |
| GUGGAGCAAUAUUACGUUUG | -3.31 ± 0.26 | -2.79 ± 0.3 |

| Sequence | self-splicing fitness (ln) (30 °C) | self-splicing fitness (ln) (37 °C) |
| --- | --- | --- |
| GUGUAGCAAUAUUACGAAAC | -3.2 ± 0.41 | -1.89 ± 0.34 |
| GUGUAGCAAUAUUACGAUCU | -1.04 ± 0.1 | 0.329 ± 0.11 |
| GUGUAGCAAUAUUACGAUUA | -1.58 ± 0.27 | 0.0491 ± 0.2 |
| GUGUAGCAAUAUUACGCACA | – | -1.5 ± 0.2 |
| GUGUAGCAAUAUUACGCAGU | -3.25 ± 0.21 | -2.46 ± 0.23 |
| GUGUAGCAAUAUUACGCCAA | – | -1.85 ± 0.34 |
| GUGUAGCAAUAUUACGCCAG | – | -1.12 ± 0.5 |
| GUGUAGCAAUAUUACGCCGU | -1.25 ± 0.17 | -1.67 ± 0.36 |
| GUGUAGCAAUAUUACGCGAA | -2.15 ± 0.17 | -0.555 ± 0.14 |
| GUGUAGCAAUAUUACGCGUU | – | -0.621 ± 0.17 |
| GUGUAGCAAUAUUACGCUAA | -1.77 ± 0.42 | -1.01 ± 0.3 |
| GUGUAGCAAUAUUACGCUUG | -1.07 ± 0.16 | -1.57 ± 0.27 |
| GUGUAGCAAUAUUACGGAUU | -2.13 ± 0.087 | -1.16 ± 0.11 |
| GUGUAGCAAUAUUACGGCGA | -1.18 ± 0.089 | -0.268 ± 0.098 |
| GUGUAGCAAUAUUACGGGCU | -2.88 ± 0.46 | -0.129 ± 0.14 |
| GUGUAGCAAUAUUACGGUCC | -1.7 ± 0.23 | -0.716 ± 0.25 |
| GUGUAGCAAUAUUACGGUCG | -1.32 ± 0.16 | -0.824 ± 0.25 |
| GUGUAGCAAUAUUACGUACC | -1.2 ± 0.29 | -0.885 ± 0.37 |
| GUGUAGCAAUAUUACGUACU | -1.52 ± 0.095 | -1.19 ± 0.14 |
| GUGUAGCAAUAUUACGUAGG | -2.66 ± 0.18 | -1.5 ± 0.18 |
| GUGUAGCAAUAUUACGUGAA | -1.94 ± 0.19 | -0.954 ± 0.2 |
| GUGUAGCAAUAUUACGUGAG | -1.23 ± 0.095 | -0.931 ± 0.093 |
| GUGUAGCAAUAUUACGUGCU | -1.44 ± 0.11 | -1.09 ± 0.13 |
| GUGUAGCAAUAUUACGUUAG | -2.45 ± 0.25 | -1.56 ± 0.22 |
| GUUAAGCAAUAUUACGAAGG | -2.17 ± 0.18 | -1.87 ± 0.28 |

| Sequence | self-splicing fitness (ln) (30 °C) | self-splicing fitness (ln) (37 °C) |
| --- | --- | --- |
| GUUAAGCAAUAUUACGACUA | -0.731 ± 0.13 | -0.438 ± 0.11 |
| GUUAAGCAAUAUUACGAGCG | -1.54 ± 0.11 | -0.685 ± 0.13 |
| GUUAAGCAAUAUUACGCCAU | -2.03 ± 0.27 | -1.26 ± 0.3 |
| GUUAAGCAAUAUUACGGCCC | 0.0722 ± 0.14 | 0.517 ± 0.17 |
| GUUAAGCAAUAUUACGGCGA | -0.403 ± 0.096 | -0.122 ± 0.11 |
| GUUAAGCAAUAUUACGGGCA | -0.851 ± 0.15 | -1.14 ± 0.14 |
| GUUAAGCAAUAUUACGGUAC | -1.7 ± 0.17 | -1.33 ± 0.22 |
| GUUAAGCAAUAUUACGUACA | -1.04 ± 0.11 | -0.694 ± 0.16 |
| GUUAAGCAAUAUUACGUCGU | -0.93 ± 0.078 | -0.441 ± 0.081 |
| GUUAAGCAAUAUUACGUGAC | -1.93 ± 0.24 | -2.56 ± 0.37 |
| GUUAAGCAAUAUUACGUUAA | -2.24 ± 0.17 | -1.79 ± 0.17 |
| GUUAAGCAAUAUUACGUUAC | -2.36 ± 0.19 | -1.33 ± 0.15 |
| GUUAAGCAAUAUUACGUUCA | -0.268 ± 0.09 | -0.472 ± 0.11 |
| GUUCAGCAAUAUUACGAAAG | -0.36 ± 0.24 | 0.462 ± 0.22 |
| GUUCAGCAAUAUUACGAAAU | -0.0391 ± 0.068 | 0.236 ± 0.12 |
| GUUCAGCAAUAUUACGACAU | -0.0137 ± 0.013 | 0.437 ± 0.033 |
| GUUCAGCAAUAUUACGACGC | 0.0985 ± 0.12 | 0.651 ± 0.23 |
| GUUCAGCAAUAUUACGCAGC | -3.43 ± 0.29 | -1.1 ± 0.2 |
| GUUCAGCAAUAUUACGCGAA | -2.26 ± 0.27 | -1.82 ± 0.28 |
| GUUCAGCAAUAUUACGCGCG | -0.45 ± 0.31 | -0.279 ± 0.23 |
| GUUCAGCAAUAUUACGCGGG | -2.32 ± 0.14 | -0.613 ± 0.1 |
| GUUCAGCAAUAUUACGGAAC | -3.19 ± 0.2 | -2.09 ± 0.38 |
| GUUCAGCAAUAUUACGGAGG | -2.38 ± 0.13 | -1.22 ± 0.17 |
